Measured values reported in patent US20150141489.

Biological target: recombinant GST-S6 (UniProt P62753)

With T7-tagged mouse S6K1 Isoform-2 (Iso-2) the “in vitro kinase assay (phospho-S6 S240-244 blot)” value was “have no kinase activity”.
